The supplement of paper PMC5998384

Legend:
HeLa Kyoto [1] = assay: solubility in G1/S (NP-40 vs SDS abundance) (log2 ratio); higher = more soluble; conditions: cell cycle stage: G1/S
HeLa Kyoto [2] = assay: melting temperature (median over replicates), in situ; higher = more thermally stable
HeLa Kyoto [3] = assay: solubility change mitosis vs G1/S (difference of NP-40 vs SDS log2 ratios) (log2 ratio difference); higher = more soluble in mitosis
HeLa Kyoto [4] = assay: thermal stability score vs G1/S (z-score of summed log2 fold changes over temperatures); higher = more thermally stable than in G1/S
[5] = cell cycle stage: early G1 (4.5 h after nocodazole release)
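For melting temperature (median over replicates), in situ in this document: HeLa Kyoto cells synchronized by double thymidine or nocodazole block, proteins quantified by TMT10plex mass spectrometry, three independent biological replicates.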
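For solubility change mitosis vs G1/S (difference of NP-40 vs SDS log2 ratios) in this document: synchronized HeLa Kyoto cells (double thymidine block for G1/S, nocodazole release for mitosis), protein amounts in NP-40 versus SDS lysates quantified by mass spectrometry, three biological replicates.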
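For solubility in G1/S (NP-40 vs SDS abundance) in this document: HeLa Kyoto cells arrested at G1/S by double thymidine block, proteins quantified by TMT10plex mass spectrometry in mild NP-40 versus SDS extracts, three biological replicates.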
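For thermal stability score vs G1/S (z-score of summed log2 fold changes over temperatures) in this document: synchronized HeLa Kyoto cells, proteins quantified by TMT10plex mass spectrometry, three biological replicates, mitosis taken 0.5 h after nocodazole release, G1/S directly after double thymidine block.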

Row | Sequence | solubility in G1/S (log2) (HeLa Kyoto [1]) | melting temperature (HeLa Kyoto [2]; cell cycle stage: G1/S) | melting temperature (HeLa Kyoto [2]; cell cycle stage: mitosis) | solubility change mitosis (log2) (HeLa Kyoto [3]) | thermal stability score (HeLa Kyoto [4]; [5]) | thermal stability score (HeLa Kyoto [4]; cell cycle stage: mitosis)
1 | MSLLMISENVKLAREYALLGNYDSAMVYYQGVLDQMNKYLYSVKDTYLQQKWQQVWQEINVEAKHVKDIMKTLESFKLDSTPLKAAQHDLPASEGEVWSMPVPVERRPSPGPRKRQSSQYSDPKSHGNRPSTTVRVHRSSAQNVHNDRGKAVRCREKKEQNKGREEKNKSPAAVTEPETNKFDSTGYDKDLVEALERDIISQNPNVRWDDIADLVEAKKLLKEAVVLPMWMPEFFKGIRRPWKGVLMVGPPGTGKTLLAKAVATECKTTFFNVSSSTLTSKYRGESEKLVRLLFEMARFYSPATIFIDEIDSICSRRGTSEEHEASRRVKAELLVQMDGVGGTSENDDPSKMVMVLAATNFPWDIDEALRRRLEKRIYIPLPSAKGREELLRISLRELELADDVDLASIAENMEGYSGADITNVCRDASLMAMRRRIEGLTPEEIRNLSKEEMHMPTTMEDFEMALKKVSKSVSAADIERYEKWIFEFGSC [KATNA1] | 0.0763 | 51.4 °C | 49.9 °C | -0.000211 | 0.0753 | 0.484
2 | MSSVQQQPPPPRRVTNVGSLLLTPQENESLFTFLGKKCVTMSSAVVQLYAADRNCMWSKKCSGVACLVKDNPQRSYFLRIFDIKDGKLLWEQELYNNFVYNSPRGYFHTFAGDTCQVALNFANEEEAKKFRKAVTDLLGRRQRKSEKRRDPPNGPNLPMATVDIKNPEITTNRFYGPQVNNISHTKEKKKGKAKKKRLTKADIGTPSNFQHIGHVGWDPNTGFDLNNLDPELKNLFDMCGISEAQLKDRETSKVIYDFIEKTGGVEAVKNELRRQAPPPPPPSRGGPPPPPPPPHNSGPPPPPARGRGAPPPPPSRAPTAAPPPPPPSRPSVAVPPPPPNRMYPPPPPALPSSAPSGPPPPPPSVLGVGPVAPPPPPPPPPPPGPPPPPGLPSDGDHQVPTTAGNKAALLDQIREGAQLKKVEQNSRPVSCSGRDALLDQIRQGIQLKSVADGQESTPPTPAPTSGIVGALMEVMQKRSKAIHSSDEDEDEDDEEDFEDDDEWED [WASL] | 0.303 | 50.7 °C | 51.3 °C | -0.121 | 0.0343 | 1.24
3 | MSHGPSPRLAESPQLSKGSLLTILGSPSPERMGPADSLPPTPPSGTPSPGPPPALPLPPAPALLADGDWESREELRLRELEEARARAAQMEKTMRRWSDCTANWREKWSKVRAERNRAREEVRQLRQRLDALTKELAGARRERQEAQGECEARGRELARLRGARGVADQTRDGPEPEAEREPVRDVGSERPPGSQELELVESLLKSMPEESEDCWEARSLGAGGPRGSSGRQERSRLPWEDTAATEEEASKLTALRLRLDESQKVLLKEREDKLALSRNIEKLEGELSQWKIKYEELSKTKQEMLKQLSILKEAHQDELGRMSEDLEDELGARSSMDRKMAELRGEMERLQAENAAEWGRRERLETEKLGLERENKKLRAQVGDLEEALARRRRQTASALDCDLRASQAALFEKNKELADLKHVHGKLKKQFQEKVAELAHANRRVEQHEAEVKKLRLRVEELKKELAQAEDELDEAHNQARKLQRSLDEQTEQSENLQVQLEHLQSRLRRQQQNAPLFGKIRSARFGTEEAEDGTSDLDEDEDLQIQVA [CCDC102A] | 0.448 | 50.8 °C | 49.3 °C | 0.0825 | -0.855 | -0.192
4 | MAAQSSLYNDDRNLLRIREKERRNQEAHQEKEAFPEKIPLFGEPYKTAKGDELSSRIQNMLGNYEEVKEFLSTKSHTHRLDASENRLGKPKYPLIPDKGSSIPSSSFHTSVHHQSIHTPASGPLSVGNISHNPKMAQPRTEPMPSLHAKSCGPPDSQHLTQDRLGQEGFGSSHHKKGDRRADGDHCASVTDSAPERELSPLISLPSPVPPLSPIHSNQQTLPRTQGSSKVHGSSNNSKGYCPAKSPKDLAVKVHDKETPQDSLVAPAQPPSQTFPPPSLPSKSVAMQQKPTAYVRPMDGQDQAPSESPELKPLPEDYRQQTFEKTDLKVPAKAKLTKLKMPSQSVEQTYSNEVHCVEEILKEMTHSWPPPLTAIHTPSTAEPSKFPFPTKDSQHVSSVTQNQKQYDTSSKTHSNSQQGTSSMLEDDLQLSDSEDSDSEQTPEKPPSSSAPPSAPQSLPEPVASAHSSSAESESTSDSDSSSDSESESSSSDSEENEPLETPAPEPEPPTTNKWQLDNWLTKVSQPAAPPEGPRSTEPPRRHPESKGSSDSATSQEHSESKDPPPKSSSKAPRAPPEAPHPGKRSCQKSPAQQEPPQRQTVGTKQPKKPVKASARAGSRTSLQGEREPGLLPYGSRDQTSKDKPKVKTKGRPRAAASNEPKPAVPPSSEKKKHKSSLPAPSKALSGPEPAKDNVEDRTPEHFALVPLTESQGPPHSGSGSRTSGCRQAVVVQEDSRKDRLPLPLRDTKLLSPLRDTPPPQSLMVKITLDLLSRIPQPPGKGSRQRKAEDKQPPAGKKHSSEKRSSDSSSKLAKKRKGEAERDCDNKKIRLEKEIKSQSSSSSSSHKESSKTKPSRPSSQSSKKEMLPPPPVSSSSQKPAKPALKRSRREADTCGQDPPKSASSTKSNHKDSSIPKQRRVEGKGSRSSSEHKGSSGDTANPFPVPSLPNGNSKPGKPQVKFDKQQADLHMREAKKMKQKAELMTDRVGKAFKYLEAVLSFIECGIATESESQSSKSAYSVYSETVDLIKFIMSLKSFSDATAPTQEKIFAVLCMRCQSILNMAMFRCKKDIAIKYSRTLNKHFESSSKVAQAPSPCIASTGTPSPLSPMPSPASSVGSQSSAGSVGSSGVAATISTPVTIQNMTSSYVTITSHVLTAFDLWEQAEALTRKNKEFFARLSTNVCTLALNSSLVDLVHYTRQGFQQLQELTKTP [AFF1] | -0.222 | 49.6 °C | 51.8 °C | 0.121 | 0.0483 | -0.483
5 | MSTKQITCRYFMHGVCREGSQCLFSHDLANSKPSTICKYYQKGYCAYGTRCRYDHTRPSAAAGGAVGTMAHSVPSPAFHSPHPPSEVTASIVKTNSHEPGKREKRTLVLRDRNLSGMAERKTQPSMVSNPGSCSDPQPSPEMKPHSYLDAIRSGLDDVEASSSYSNEQQLCPYAAAGECRFGDACVYLHGEVCEICRLQVLHPFDPEQRKAHEKICMLTFEHEMEKAFAFQASQDKVCSICMEVILEKASASERRFGILSNCNHTYCLSCIRQWRCAKQFENPIIKSCPECRVISEFVIPSVYWVEDQNKKNELIEAFKQGMGKKACKYFEQGKGTCPFGSKCLYRHAYPDGRLAEPEKPRKQLSSQGTVRFFNSVRLWDFIENRESRHVPNNEDVDMTELGDLFMHLSGVESSEP [MKRN2] | 0.161 | 46.5 °C | 48.6 °C | -0.033 | 0.686 | 1.44
6 | MDRGTLPLAVALLLASCSLSPTSLAETVHCDLQPVGPERGEVTYTTSQVSKGCVAQAPNAILEVHVLFLEFPTGPSQLELTLQASKQNGTWPREVLLVLSVNSSVFLHLQALGIPLHLAYNSSLVTFQEPPGVNTTELPSFPKTQILEWAAERGPITSAAELNDPQSILLRLGQAQGSLSFCMLEASQDMGRTLEWRPRTPALVRGCHLEGVAGHKEAHILRVLPGHSAGPRTVTVKVELSCAPGDLDAVLILQGPPYVSWLIDANHNMQIWTTGEYSFKIFPEKNIRGFKLPDTPQGLLGEARMLNASIVASFVELPLASIVSLHASSCGGRLQTSPAPIQTTPPKDTCSPELLMSLIQTKCADDAMTLVLKKELVAHLKCTITGLTFWDPSCEAEDRGDKFVLRSAYSSCGMQVSASMISNEAVVNILSSSSPQRKKVHCLNMDSLSFQLGLYLSPHFLQASNTIEPGQQSFVQVRVSPSVSEFLLQLDSCHLDLGPEGGTVELIQGRAAKGNCVSLLSPSPEGDPRFSFLLHFYTVPIPKTGTLSCTVALRPKTGSQDQEVHRTVFMRLNIISPDLSGCTSKGLVLPAVLGITFGAFLIGALLTAALWYIYSHTRSPSKREPVVAVAAPASSESSSTNHSIGSTQSTPCSTSSMA [ENG] | 0.178 | 56.1 °C | 55.6 °C | -0.131 | -1.8 | -2.37
7 | MASKRALVILAKGAEEMETVIPVDVMRRAGIKVTVAGLAGKDPVQCSRDVVICPDASLEDAKKEGPYDVVVLPGGNLGAQNLSESAAVKEILKEQENRKGLIAAICAGPTALLAHEIGFGSKVTTHPLAKDKMMNGGHYTYSENRVEKDGLILTSRGPGTSFEFALAIVEALNGKEVAAQVKAPLVLKD [PARK7] | 0.529 | 56.8 °C | 57.4 °C | 0.0696 | 1.01 | -0.859
8 | MAAVQMDPELAKRLFFEGATVVILNMPKGTEFGIDYNSWEVGPKFRGVKMIPPGIHFLHYSSVDKANPKEVGPRMGFFLSLHQRGLTVLRWSTLREEVDLSPAPESEVEAMRANLQELDQFLGPYPYATLKKWISLTNFISEATVEKLQPENRQICAFSDVLPVLSMKHTKDRVGQNLPRCGIECKSYQEGLARLPEMKPRAGTEIRFSELPTQMFPEGATPAEITKHSMDLSYALETVLNKQFPSSPQDVLGELQFAFVCFLLGNVYEAFEHWKRLLNLLCRSEAAMMKHHTLYINLISILYHQLGEIPADFFVDIVSQDNFLTSTLQVFFSSACSIAVDATLRKKAEKFQAHLTKKFRWDFAAEPEDCAPVVVELPEGIEMG [AAR2] | 0.0362 | 50.2 °C | 50.4 °C | -0.266 | 0.316 | 1.07
9 | MATKTAGVGRWEVVKKGRRPGVGAGAGGRGGGRNRRALGEANGVWKYDLTPAIQTTSTLYERGFENIMKRQNKEQVPPPAVEPKKPGNKKQPKKVATPPNQNQKQGRFRSLEEALKALDVADLQKELDKSQSVFSGNPSIWLKDLASYLNYKLQAPLSEPTLSQHTHDYPYSLVSRELRGIIRGLLAKAAGSLELFFDHCLFTMLQELDKTPGESLHGYRICIQAILQDKPKIATANLGKFLELLRSHQSRPAKCLTIMWALGQAGFANLTEGLKVWLGIMLPVLGIKSLSPFAITYLDRLLLMHPNLTKGFGMIGPKDFFPLLDFAYMPNNSLTPSLQEQLCQLYPRLKVLAFGAKPDSTLHTYFPSFLSRATPSCPPEMKKELLSSLTECLTVDPLSASVWRQLYPKHLSQSSLLLEHLLSSWEQIPKKVQKSLQETIQSLKLTNQELLRKGSSNNQDVVTCDMACKGLLQQVQGPRLPWTRLLLLLLVFAVGFLCHDLRSHSSFQASLTGRLLRSSGFLPASQQACAKLYSYSLQGYSWLGETLPLWGSHLLTVVRPSLQLAWAHTNATVSFLSAHCASHLAWFGDSLTSLSQRLQIQLPDSVNQLLRYLRELPLLFHQNVLLPLWHLLLEALAWAQEHCHEACRGEVTWDCMKTQLSEAVHWTWLCLQDITVAFLDWALALISQQ [TMEM214] | -0.173 | 51.1 °C | 49.8 °C | 0.000207 | -1.35 | -0.782
10 | MSFLQDPSFFTMGMWSIGAGALGAAALALLLANTDVFLSKPQKAALEYLEDIDLKTLEKEPRTFKAKELWEKNGAVIMAVRRPGCFLCREEAADLSSLKSMLDQLGVPLYAVVKEHIRTEVKDFQPYFKGEIFLDEKKKFYGPQRRKMMFMGFIRLGVWYNFFRAWNGGFSGNLEGEGFILGGVFVVGSGKQGILLEHREKEFGDKVNLLSVLEAAKMIKPQTLASEKK [FAM213A] | -0.0704 | 56.6 °C | 55.5 °C | -0.0729 | -0.538 | -0.108
11 | METESGNQEKVMEEESTEKKKEVEKKKRSRVKQVLADIAKQVDFWFGDANLHKDRFLREQIEKSRDGYVDISLLVSFNKMKKLTTDGKLIARALRSSAVVELDLEGTRIRRKKPLGERPKDEDERTVYVELLPKNVNHSWIERVFGKCGNVVYISIPHYKSTGDPKGFAFVEFETKEQAAKAIEFLNNPPEEAPRKPGIFPKTVKNKPIPALRVVEEKKKKKKKKGRMKKEDNIQAKEENMDTSNTSISKMKRSRPTSEGSDIESTEPQKQCSKKKKKRDRVEASSLPEVRTGKRKRSSSEDAESLAPRSKVKKIIQKDIIKEASEASKENRDIEISTEEEKDTGDLKDSSLLKTKRKHKKKHKERHKMGEEVIPLRVLSKSEWMDLKKEYLALQKASMASLKKTISQIKSESEMETDSGVPQNTGMKNEKTANREECRTQEKVNATGPQFVSGVIVKIISTEPLPGRKQVRDTLAAISEVLYVDLLEGDTECHARFKTPEDAQAVINAYTEINKKHCWKLEILSGDHEQRYWQKILVDRQAKLNQPREKKRGTEKLITKAEKIRLAKTQQASKHIRFSEYD [LARP7] | -0.53 | 48.8 °C | 50.1 °C | 0.194 | 0.456 | 1.1
